In paper PMC10110466 (Nature biotechnology, 2022):

Molecular target: T1, soluble human IL-2Rβγ complex (human, UniProt P31785 23-262; P14784 27-240, biotin)
T1 sequence (looked up) 1: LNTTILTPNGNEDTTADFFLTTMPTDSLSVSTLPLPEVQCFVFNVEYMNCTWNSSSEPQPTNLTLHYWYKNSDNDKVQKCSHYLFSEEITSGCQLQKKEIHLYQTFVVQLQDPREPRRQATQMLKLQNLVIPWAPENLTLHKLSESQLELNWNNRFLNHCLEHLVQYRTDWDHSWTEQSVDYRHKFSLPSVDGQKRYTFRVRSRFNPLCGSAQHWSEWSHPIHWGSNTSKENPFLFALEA
T1 sequence (looked up) 2: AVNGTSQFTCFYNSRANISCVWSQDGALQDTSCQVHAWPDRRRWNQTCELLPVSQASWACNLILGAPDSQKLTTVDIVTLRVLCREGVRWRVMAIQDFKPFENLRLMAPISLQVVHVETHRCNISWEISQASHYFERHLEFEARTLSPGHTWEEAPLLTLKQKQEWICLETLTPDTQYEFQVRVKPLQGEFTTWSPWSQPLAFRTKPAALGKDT
Assay: cell-based or functional assay

STAT5 phosphorylation in YT-1 human NK cells, EC50: > 40 µM
Binder: PKKKIQLHAEHALYDALMILNIVKTNS [Neo2A]
